Earlier results, collected in PMC6934455, “Molecular Dynamics model of peptide-protein conjugation: case study of covalent complex between Sos1 peptide and N-terminal SH3 domain from Grb2” (Scientific Reports, 2019).

Target: Sos1 peptide (Homo sapiens) (UniProt Q07889)

Chain of Grb2 N-terminal SH3 (P62993 1-58): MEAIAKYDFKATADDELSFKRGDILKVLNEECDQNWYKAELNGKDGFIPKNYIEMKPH

Kd: 3.5 µM
Substance: Grb2 N-terminal SH3 (from UniProt P62993)
